Results as given in patent publication US20240424117A1, “Paclitaxel Prodrug, Preparation Method and Application Thereof” (WEST CHINA HOSPITAL, SICHUAN UNIVERSITY, priority 2023, published 2024).

Key:
Format in all cases: physicochemical
[1] = Release performance of prodrug (dialysis, HPLC determination of paclitaxel); details: for time to almost complete release of paclitaxel: 37° C.; for change of release rate after the addition of GSH: with GSH (10 mM) versus without
Method: The testing instrument was Agilent 1260 series (USA), with a reversed phase C18 column (4.6×100 mm). The mobile phase was acetonitrile/water (80/20), the column temperature was 30° C., the flow rate was 1.0 mL/min, and the detection wavelength was 227 nm.
Firstly, HPLC was used to detect the response of PTX in this mobile phase. After accurately weighing a certain amount of paclitaxel, PTX was prepared with the mixed solvent of acetonitrile and ultrapure water (9/1, v/v) into a series of standard solutions at different concentrations. Linear regression was performed between the measured response peak area A and concentration C, to obtain the standard curve of the PTX solution. The curve equation was fitted, and the concentration-peak area curve equation of PTX was Y=25.025X, with a correlation coefficient of R^2=0.9996.
3 mL of drug-loaded micelles were loaded into a dialysis bag (MWCO=1000), and the release medium was PBS containing 30% ethanol (V/V) (pH 5.0 or 7.4). The release of paclitaxel from self-assembled nanoparticles of prodrug was investigated with or without the addition of glutathione (10 mM GSH). The specific procedures are as follows: 3 mL of prodrug nanoparticle solution (1 mg/mL) was placed into a dialysis bag (MW1000) and added to 30 mL of the release media, and then the entire system was transferred into a constant temperature shaker (37° C., 110 rpm). 1 mL of release solution was collected at different pre-determined time points, taking 3 parallel samples at each time point. After sampling, the same volume of pure PBS or PBS containing 10 mM GSH (10 Mm) was supplemented, and the drug concentration was determined by HPLC. The cumulative release was calculated using the following formula:
[formula] • wherein R is the cumulative release amount; Vi is the total volume of the solution before the i-th sampling; Ci is the total concentration of the solution before the i-th sampling; Vsj is the jth sampling volume; Cj is the total concentration of the solution before the jth sampling, i=2, 3, 4 . . .; j=i−1.

[2] = Particle size, particle size distribution and zeta potential of micelles by dynamic light scattering; details: prodrug micelles in aqueous solution, 25° C.; for PDI / Size(nm): DLS
Method: The particle size, particle size distribution and zeta potential of micelles were measured by Zetasizer Nano ZS Dynamic light scattering (DLS) potentiometer (Malvern, UK) at 25° C. and 90° scattering angle.

[3] = Study on the stability of micelles in vitro (PBS or added glutathione, DLS); details: GSH added, 37° C. shaker, DLS (FIG. 5)
Method: In order to study the stability of micelles in vitro, the micellar solution was dropped into PBS simulating the human physiological environment, or a certain amount of glutathione was added. All samples were placed in a 37° C. constant temperature shaker (110 rpm), and the stability of micelles was studied by dynamic light scattering at the pre-determined time points.

[4] = Transmission electron microscopy of micellar morphology; details: TEM (FIG. 3)
Method: A small amount of micellar solution fully mixed under ultrasonic was added dropwise onto the copper mesh coated with Formvar film, and then dyed with 1% (w/v) phosphotungstic acid staining solution for 3 min. Subsequently, the excess liquid was absorbed with filter paper, and the copper mesh was allowed to dry naturally. Then, Tecnai G2 F20 S-TWIN transmission electron microscopy (FEI Corporation, USA) was used to observe the micellar morphology, and the acceleration voltage was 75 KV.

[5] = acidic pH 5.0, with GSH (10 mM)
[6] = neutral pH 7.4, with GSH (10 mM)

| Substance | time to almost complete release of paclitaxel [1, 5] [h] | time to almost complete release of paclitaxel [1, 6] [h] | change of release rate after the addition of GSH [1] | Zeta Potential(mV) [2] [mV] | PDI [2] | Size(nm) [2] [nm] | micelle state (particle size and PDI) after addition of glutathione [3] | micelle morphology and dispersion [4] |
| --- | --- | --- | --- | --- | --- | --- | --- | --- |
| paclitaxel-dithiodipropionic acid-polyethylene glycol [PDP] | 144 | 120 | significantly accelerated | −18.1 ± 0.8 | 0.166 ± 0.003 | 129.07 ± 1.76 | significantly disintegrated | – |
| paclitaxel-dithiodipropionic acid-polyethylene glycol-RGD Peptide [PDPR] | 144 | 120 | significantly accelerated | −7.38 ± 0.8 | 0.065 ± 0.012 | 114.63 ± 1.53 | significantly disintegrated | uniform particle size and dispersion |
| paclitaxel-adipic acid-polyethylene glycol [PAP] | – | – | – | −13.2 ± 0.6 | 0.103 ± 0.037 | 109.43 ± 0.94 | – | – |
| paclitaxel-adipic acid-polyethylene glycol-RGD peptide [PAPR] | – | – | – | −9.91 ± 0.3 | 0.110 ± 0.002 | 117.93 ± 5.57 | – | – |
